Columns and labels:
[1] = system: chronic DSS colitis; experiment: Therapy of chronic DSS colitis, disease activity index (DAI); type: in vivo, Balb/c mice; details: control 5.3 ± 0.7
Excerpt: Colitis was induced in 30 8- to 10-week-old, female, Balb/c mice (Jackson Laboratories, Bar Harbor, Me.) by adding 5% DSS (Sigma Chemical Co., St. Louis, Mo.) (Dextran Sodiumsulfate (DSS) to their drinking water for the period of seven days and allowing them to drink ad libitum. At the 8th day DSS administration was stopped for another seven days. This scheme of DSS administration for seven days followed by a period of seven days pure water administration was repeated as shown in FIG. 15B. At the 29th day 20 mice were treated with Galectin-2 intraperitoneally (i.p.) parallel to DSS administration. In one trial of this treatment a group of 10 mice were treated with 2 mg/kg Galectin-2 once a day and in another trial the same total dose was distributed in two administrations for a group of ten mice, e.g. 10 mice were treated with respectively 1 mg/kg Galectin-2 twice a day. Parallel a group of 10 mice was treated with 0,9% NaCl instead of Galectin-2 as control. At the 8th day the Galectin-2 treatment was stopped. Parallel to the treatment mice were weighed and inspected for diarrhea and rectal bleeding. After stopping the treatment mice were killed, their entire colon was resected, and its length was measured and weighed. The disease activity index (DAI; i.e., the combined score of weight loss and bleeding) was determined according to a standard scoring system […]

[2] = Toxicity study with supratherapeutic dose in healthy mice; type: in vivo, Balb/c mice
Method: In addition, Balb/c mice (not treated with DSS) were treated with 100 mg/kg body weight-Galectin-2, a dose that was up to 50-fold higher than doses of Galectin-2 that caused optimal anti-inflammatory effects in DSS treated mice (optimal therapeutic doses ranged from 1.5-3 mg/kg body weight per day). In these toxicity studies Balb/c mice (n=5), weighing on average 20 g, were treated with 100 mg/kg body weight Galectin-2 once daily i.p. for 5 days. The mice gained about 7±1.7% weight during the 5 day treatment period. […] The mice were sacrificed following the 5 day treatment period and organs were collected for pathological assessment by an experienced pathologist.

[3] = system: caspase-3; experiment: Caspase activity by flow cytometry; type: cell-based, human; details: anti-CD3 activated PBT, 50 μg/ml, 24 h
Method: (§1) To measure caspase activity, 5×10^5 PBT were incubated in the presence or absence of 50 μg/ml galectin-2 together with derivates of the PE-labelled affinity purified anti-caspase-3 Ab (BD Pharmingen), the carboxyfluorescein-labelled caspase-8 inhibitor FAM-LETD-fmk or caspase-9 inhibitor FAM-LEHD-fmk (both from Biocharta, Hamburg, Germany), all binding irreversibly to activated caspase-3, -8 or -9, respectively. Cells were than analyzed by flow cytometry (FACS-Calibur, BD) and the increase of caspase activity determined after proper gating in correlation to untreated cells.

[4] = system: caspase-9; experiment: Caspase activity by flow cytometry; type: cell-based, human; details: anti-CD3 activated PBT, 50 μg/ml, 24 h
Method: as §1

[5] = system: PBT; experiment: Mitochondrial membrane potential (rhodamine 123); type: cell-based, human; details: CD3 activated PBT, 50 μg/ml
Excerpt: Rhodamine 123 is a fluorescent cationic dye that accumulates in the mitochondrial matrix because of its charge and solubility in both the inner mitochondrial membrane and matrix space (22). Based on the observation that accumulation of this lipophilic dye is in proportion to ΔΨ, and that deenergizing of the mitochondria decreases rhodamine 123 fluorescence (23), the inventors measured the mitochondrial membrane potential of PBT. Cells were stimulated in the presence or absence of galectin-2 with CD3 for 24 h, harvested, washed and resuspended in 1 ml of rhodamine 123 (10 μg/ml, Sigma-Aldrich) for 30 min at 37° C. in the dark. The samples were washed twice in cold PBS and fluorescence analysis by flow cytometry using an argon ion laser with an emission filter at 530 nm was performed immediately without fixation (BD FacsCalibur). PBT without stimulation and unstained samples were used as controls.

[6] = system: T cells (PBT, LPT); experiment: Adhesion assay to collagen type I and fibronectin; type: cell-based, human
Method: 96 well flat-bottom plates were precoated overnight at 4° C. with 12 μg/well fibronectin (Chemicon) in DPBS, 40 μg/well collagen type I (Sigma-Aldrich) in 0.1 M acetic acid, or 3% BSA (Sigma-Aldrich) in DPBS as a control and then washed three times with DPBS. Freshly isolated T cells were fluorescently-labelled with 5 μM calcein-AM (Molecular Probes, Eugene, Oreg.) for 30 min at 37° C. in 5% CO2 at 5×10^6 cells/ml in RPMI. The cells were then washed three times with RPMI containing 5% FCS. Calcein-labelled T cells were resuspended in RPMI and 5×10^5 T cells/well were added to 96-well plates containing purified ECM components or BSA for the indicated times. Saturating concentrations of integrin-blocking mAbs (predetermined by flow cytometry) were preincubated with T cells for 30 min at 37° C. before adding T cells to the wells for the adhesion assay. Nonadherent cells were removed by a standardized washing technique that was developed to minimize background binding, which includes both an orbital and a rocking motion repeated three times with RPMI. Adhesion was quantified with a multiwell fluorescent spectrophotometer (Tecan, Groedig, Austria). For each experimental group the results were expressed as the mean percentage±SD of bound T cells from triplicate wells.

[7] = 100 mg/kg once daily i.p. for 5 days

B1: galectin-2: β-galactoside binding lectin, non-covalent dimer with subunits of about 14 kDa; recombinant human or rat (SEQ ID NO:1, 2) (protein)
chain: MAGELEVKNMDMKPGSTLKITGSIADGTDGFVINLGQGTDKLNLHFNPRFSESTIVCNSLDGSNWGQEQREDHLCFSPGSEVKFTVTFESDKFKVKLPDGHELTFPNRLGHSHLSYLSVRGGFNMSSFKLKE
- DAI (disease activity index) ([1]; 1 × 2 mg/kg i.p. once a day): 4.5 ± 0.6,
- DAI (disease activity index) ([1]; 2 × 1 mg/kg i.p. twice a day): 2.8 ± 0.3,
- mortality [2, 7]: None of these animals died
- pathological assessment of heart, kidney, lung, liver [2, 7]: did not reveal any microscopic or macroscopic damage
- weight gain [2, 7]: about 7±1.7%
- highest dose evaluated relative to optimal dose ([2]; 100 mg/kg versus 2×1 mg/kg): about 50 fold
- dose limiting toxicities ([2]; broad dose range up to 100 mg/kg): no dose limiting toxicities were observed
- caspase-3 activity [3]: significant increase
- caspase-9 activity [4]: significant increase
- mitochondrial polarization potential [5]: clear decrease in the mitochondrial polarization potential
- cells adhering to collagen type I ([6]; CD3 activated PBT, without galectin 22.1±3.5%): 15.1±5.6%
- cells adhering to fibronectin ([6]; CD3 activated PBT, without galectin 26.3±5.6%): 39.8±4.9%
- attachment to fibronectin ([6]; LPT): increasing
- cell adhesion to collagen ([6]; LPT): inhibited
